Laboratory results from patent US20160297889A1 (TORAY INDUSTRIES, published 2016).

T1: CAPRIN-1 protein expressed on the membrane surface of human cancer cells (human, UniProt Q14444 2-709)
T1 sequence (looked up): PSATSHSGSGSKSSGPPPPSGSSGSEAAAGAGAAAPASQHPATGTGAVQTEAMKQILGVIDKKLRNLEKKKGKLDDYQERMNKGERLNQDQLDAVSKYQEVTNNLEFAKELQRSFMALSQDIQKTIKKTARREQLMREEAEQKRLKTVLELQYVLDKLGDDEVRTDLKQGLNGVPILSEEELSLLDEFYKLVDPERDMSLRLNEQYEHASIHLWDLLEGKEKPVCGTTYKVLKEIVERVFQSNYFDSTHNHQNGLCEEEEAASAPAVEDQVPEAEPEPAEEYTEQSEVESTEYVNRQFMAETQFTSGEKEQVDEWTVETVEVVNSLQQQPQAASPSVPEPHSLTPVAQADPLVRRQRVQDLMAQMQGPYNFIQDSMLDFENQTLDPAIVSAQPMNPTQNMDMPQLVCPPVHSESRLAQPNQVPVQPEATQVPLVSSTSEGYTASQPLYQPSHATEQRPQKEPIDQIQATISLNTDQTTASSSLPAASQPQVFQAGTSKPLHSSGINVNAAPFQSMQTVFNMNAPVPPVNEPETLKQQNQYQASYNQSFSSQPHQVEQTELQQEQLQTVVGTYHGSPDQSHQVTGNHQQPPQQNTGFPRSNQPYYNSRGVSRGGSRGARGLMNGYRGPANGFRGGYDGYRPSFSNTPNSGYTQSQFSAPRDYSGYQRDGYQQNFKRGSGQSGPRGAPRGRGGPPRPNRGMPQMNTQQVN

B1: humanized antibody #7 (antibody, V domains shown)
VH: EVQLVESGGGLVQPGGSLRLSCAASGFSLSSHSLGWVRQAPGKGLEWIGDIRSGGSAYYANWAKGRFTISRDNSKNTLYLQMNSLRAEDTAVYYCTRTNGPSDLTNRLDLWGQGTLVTVSS
VL: QVLTQSPSSLSASVGDRVTINCQASQSLYNNENLAWFQQKPGKVPKRLIYGASTLASGVSSRFSGSGSGTEFTLTISSLQCEDFAIYYCLGEFSCGSADCFAFGGGTKVEIK
B2: humanized antibody #2 (antibody, V domains shown)
VH: EVQLVESGGGLVQPGGSLRLSCAASGFSLSSHSLGWVRQAPGKGLEWIGDIRSGGSAYYANWAKGRFTISRDNSKNTLYLQMNSLRAEDTAVYYCTRTNGPSDLTNRLDLWGQGTLVTVSS
VL: EIVLTQSPSSLSASVGDRVTINCQASQSLYNNENLAWFQQKPGKVPKRLIYGASTLASGVSSRFSGSGSGTEFTLTISNLQPEDFATYYCLGEFSCGSADCFAFGGGTKVEIK
B3: humanized antibody #10 (antibody, V domains shown)
VH: EQSLVESGGGLVQPGGSLRLSCAASGFSLSSHSLGWVRQAPGKGLEWIGDIRSGGSAYYANWAKGRFTISRDNSKNTLYLQMNSLRAEDTAVYYCTRTNGPSDLTNRLDLWGQGTLVTVSS
VL: QVLTQSPSSLSASVGDRVTINCQASQSLYNNENLAWFQQKPGKVPKRLIYGASTLASGVSSRFSGSGSGTEFTLTISSLQCEDFAIYYCLGEFSCGSADCFAFGGGTKVEIK
B4: humanized antibody #6 (antibody, V domains shown)
VH: EVQLVESGGGLVQPGGSLRLSCAASGFSLSSHSLGWVRQAPGKGLEWIGDIRSGGSAYYANWAKGRFTISRDNSKNTLYLQMNSLRAEDTAVYFCTRTNGPSDLTNRLDLWGQGTLVTVSS
VL: QVLTQSPSSLSASVGDRVTINCQASQSLYNNENLAWFQQKPGKVPKRLIYGASTLASGVSSRFSGSGSGTEFTLTISSLQCEDFAIYYCLGEFSCGSADCFAFGGGTKVEIK
B5: humanized antibody #0 (antibody, V domains shown)
VH: EVQLVESGGGLVQPGGSLRLSCAASGFSLSSHSLGWVRQAPGKGLEWIGDIRSGGSAYYANWAKGRFTISRDNSKNTLYLQMNSLRAEDTAVYFCTRTNGPSDLTNRLDLWGQGTLVTVSS
VL: AIQMTQSPSSLSASVGDRVTINCQASQSLYNNENLAWFQQKPGKAPKRLIYGASTLASGVSSRFSGSGSGTDFTLTISSLQPEDFAIYYCLGEFSCGSADCFAFGGGTKVEIK

Target: T1, CAPRIN-1 protein expressed on the …
Test: cell-based or functional assay

Binder	ADCC cytotoxic activity (51Cr release) on 22Rv1 [%]	ADCC cytotoxic activity (51Cr release) on A-673 [%]	ADCC cytotoxic activity (51Cr release) on BT-474 [%]	ADCC cytotoxic activity (51Cr release) on Caki-2 [%]	ADCC cytotoxic activity (51Cr release) on FaDu [%]	ADCC cytotoxic activity (51Cr release) on G-361 [%]	ADCC cytotoxic activity (51Cr release) on HEC-1-A [%]	ADCC cytotoxic activity (51Cr release) on HT-29 [%]	ADCC cytotoxic activity (51Cr release) on HT-1080 [%]	ADCC cytotoxic activity (51Cr release) on HT-1376 [%]	ADCC cytotoxic activity (51Cr release) on Hep3B [%]	ADCC cytotoxic activity (51Cr release) on IM-9 [%]	ADCC cytotoxic activity (51Cr release) on MDA-MB-361 [%]	ADCC cytotoxic activity (51Cr release) on NCI-H2452 [%]	ADCC cytotoxic activity (51Cr release) on NCI-N87 [%]	ADCC cytotoxic activity (51Cr release) on NT/D1 [%]	ADCC cytotoxic activity (51Cr release) on OCI-AML5 [%]	ADCC cytotoxic activity (51Cr release) on OE33 [%]	ADCC cytotoxic activity (51Cr release) on Panc10.5 [%]	ADCC cytotoxic activity (51Cr release) on QG56 [%]	other results
B1	≥ 49	≥ 50	≥ 54	≥ 37	≥ 50	≥ 25	≥ 52	≥ 43	≥ 30	≥ 45	≥ 28	≥ 35	≥ 52	≥ 35	≥ 45	≥ 37	≥ 20	≥ 35	≥ 35	≥ 46	ADCC cytotoxic activity (51Cr release) on RD-ES: ≥ 48%; ADCC cytotoxic activity (51Cr release) on RPM11666: ≥ 40%; ADCC cytotoxic activity (51Cr release) on Ramos: ≥ 20%; ADCC cytotoxic activity (51Cr release) on SKOV3: ≥ 35%; ADCC cytotoxic activity (51Cr release) on T24: ≥ 36%; ADCC cytotoxic activity (51Cr release) on TGBC14TKB: ≥ 35%; ADCC cytotoxic activity (51Cr release) on TT: ≥ 42%; ADCC cytotoxic activity (51Cr release) on U-87MG: ≥ 36%
B2	≥ 45	≥ 46	≥ 50	≥ 33	≥ 40	≥ 21	≥ 45	≥ 40	≥ 25	≥ 40	≥ 25	≥ 30	≥ 45	≥ 39	≥ 38	≥ 30	≥ 18	≥ 33	≥ 30	≥ 42	ADCC cytotoxic activity (51Cr release) on RD-ES: ≥ 40%; ADCC cytotoxic activity (51Cr release) on RPM11666: ≥ 36%; ADCC cytotoxic activity (51Cr release) on Ramos: ≥ 18%; ADCC cytotoxic activity (51Cr release) on SKOV3: ≥ 31%; ADCC cytotoxic activity (51Cr release) on T24: ≥ 33%; ADCC cytotoxic activity (51Cr release) on TGBC14TKB: ≥ 30%; ADCC cytotoxic activity (51Cr release) on TT: ≥ 35%; ADCC cytotoxic activity (51Cr release) on U-87MG: ≥ 29%
B3	≥ 49	≥ 50	≥ 54	≥ 37	≥ 50	≥ 25	≥ 52	≥ 43	≥ 30	≥ 45	≥ 28	≥ 35	≥ 52	≥ 35	≥ 45	≥ 37	≥ 20	≥ 35	≥ 35	≥ 46	ADCC cytotoxic activity (51Cr release) on RD-ES: ≥ 48%; ADCC cytotoxic activity (51Cr release) on RPM11666: ≥ 40%; ADCC cytotoxic activity (51Cr release) on Ramos: ≥ 20%; ADCC cytotoxic activity (51Cr release) on SKOV3: ≥ 35%; ADCC cytotoxic activity (51Cr release) on T24: ≥ 36%; ADCC cytotoxic activity (51Cr release) on TGBC14TKB: ≥ 35%; ADCC cytotoxic activity (51Cr release) on TT: ≥ 42%; ADCC cytotoxic activity (51Cr release) on U-87MG: ≥ 36%
B4	≥ 49	≥ 50	≥ 54	≥ 37	≥ 50	≥ 25	≥ 52	≥ 43	≥ 30	≥ 45	≥ 28	≥ 35	≥ 52	≥ 35	≥ 45	≥ 37	≥ 20	≥ 35	≥ 35	≥ 46	ADCC cytotoxic activity (51Cr release) on RD-ES: ≥ 48%; ADCC cytotoxic activity (51Cr release) on RPM11666: ≥ 40%; ADCC cytotoxic activity (51Cr release) on Ramos: ≥ 20%; ADCC cytotoxic activity (51Cr release) on SKOV3: ≥ 35%; ADCC cytotoxic activity (51Cr release) on T24: ≥ 36%; ADCC cytotoxic activity (51Cr release) on TGBC14TKB: ≥ 35%; ADCC cytotoxic activity (51Cr release) on TT: ≥ 42%; ADCC cytotoxic activity (51Cr release) on U-87MG: ≥ 36%
B5	≥ 38	≥ 40	≥ 46	≥ 26	≥ 35	≥ 15	≥ 40	≥ 35	≥ 20	≥ 28	≥ 21	≥ 27	≥ 40	≥ 31	≥ 34	≥ 25	≥ 15	≥ 30	≥ 24	≥ 38	ADCC cytotoxic activity (51Cr release) on RD-ES: ≥ 31%; ADCC cytotoxic activity (51Cr release) on RPM11666: ≥ 30%; ADCC cytotoxic activity (51Cr release) on Ramos: ≥ 15%; ADCC cytotoxic activity (51Cr release) on SKOV3: ≥ 27%; ADCC cytotoxic activity (51Cr release) on T24: ≥ 30%; ADCC cytotoxic activity (51Cr release) on TGBC14TKB: ≥ 25%; ADCC cytotoxic activity (51Cr release) on TT: ≥ 30%; ADCC cytotoxic activity (51Cr release) on U-87MG: ≥ 24%
